Source: patent US20230104578A1, “ANTI-ADRENOMEDULLIN (ADM) ANTIBODY OR ANTI-ADM ANTIBODY FRAGMENT OR ANTI-ADM NON-IG SCAFFOLD FOR USE IN THERAPY OR PREVENTION OF SHOCK” (ADRENOMED AG, priority 2020, published 2023)

Tests used:
[1] = molecular target: human recombinant adrenomedullin receptor (CRLR+RAMP3) (human)
[2] = molecular target: human recombinant adrenomedullin receptor (CRLR+RAMP3) (human); remark: listed apart in the source

IC50 (read off the curve); cAMP (HTRF) induced by 5.63 nM hADM, % inhibition [1]: 300 nM | IC50 (read off the curve); cAMP (HTRF) induced by 0.67 nM mADM, % inhibition [2]: 3000 nM
Substance: human ADM 22-52 (peptide)
